Test results reported in the supplement of paper PMC5998384.

Columns and labels:
[1] = test system: HeLa Kyoto; assay: thermal stability score vs G1/S (z-score of summed log2 fold changes over temperatures); higher = more thermally stable than in G1/S
[2] = test system: HeLa Kyoto; assay: melting temperature (median over replicates), in situ; higher = more thermally stable
[3] = test system: HeLa Kyoto; assay: solubility in G1/S (NP-40 vs SDS abundance) (log2 ratio); higher = more soluble; conditions: cell cycle stage: G1/S
[4] = test system: HeLa Kyoto; assay: solubility change mitosis vs G1/S (difference of NP-40 vs SDS log2 ratios) (log2 ratio difference); higher = more soluble in mitosis
[5] = cell cycle stage: early G1 (4.5 h after nocodazole release)
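For melting temperature (median over replicates), in situ in this document: HeLa Kyoto cells synchronized by double thymidine or nocodazole block, proteins quantified by TMT10plex mass spectrometry, three independent biological replicates.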
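For solubility change mitosis vs G1/S (difference of NP-40 vs SDS log2 ratios) in this document: synchronized HeLa Kyoto cells (double thymidine block for G1/S, nocodazole release for mitosis), protein amounts in NP-40 versus SDS lysates quantified by mass spectrometry, three biological replicates.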
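For solubility in G1/S (NP-40 vs SDS abundance) in this document: HeLa Kyoto cells arrested at G1/S by double thymidine block, proteins quantified by TMT10plex mass spectrometry in mild NP-40 versus SDS extracts, three biological replicates.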
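For thermal stability score vs G1/S (z-score of summed log2 fold changes over temperatures) in this document: synchronized HeLa Kyoto cells, proteins quantified by TMT10plex mass spectrometry, three biological replicates, mitosis taken 0.5 h after nocodazole release, G1/S directly after double thymidine block.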

PRRC2A, sequence (chain, as listed by the source): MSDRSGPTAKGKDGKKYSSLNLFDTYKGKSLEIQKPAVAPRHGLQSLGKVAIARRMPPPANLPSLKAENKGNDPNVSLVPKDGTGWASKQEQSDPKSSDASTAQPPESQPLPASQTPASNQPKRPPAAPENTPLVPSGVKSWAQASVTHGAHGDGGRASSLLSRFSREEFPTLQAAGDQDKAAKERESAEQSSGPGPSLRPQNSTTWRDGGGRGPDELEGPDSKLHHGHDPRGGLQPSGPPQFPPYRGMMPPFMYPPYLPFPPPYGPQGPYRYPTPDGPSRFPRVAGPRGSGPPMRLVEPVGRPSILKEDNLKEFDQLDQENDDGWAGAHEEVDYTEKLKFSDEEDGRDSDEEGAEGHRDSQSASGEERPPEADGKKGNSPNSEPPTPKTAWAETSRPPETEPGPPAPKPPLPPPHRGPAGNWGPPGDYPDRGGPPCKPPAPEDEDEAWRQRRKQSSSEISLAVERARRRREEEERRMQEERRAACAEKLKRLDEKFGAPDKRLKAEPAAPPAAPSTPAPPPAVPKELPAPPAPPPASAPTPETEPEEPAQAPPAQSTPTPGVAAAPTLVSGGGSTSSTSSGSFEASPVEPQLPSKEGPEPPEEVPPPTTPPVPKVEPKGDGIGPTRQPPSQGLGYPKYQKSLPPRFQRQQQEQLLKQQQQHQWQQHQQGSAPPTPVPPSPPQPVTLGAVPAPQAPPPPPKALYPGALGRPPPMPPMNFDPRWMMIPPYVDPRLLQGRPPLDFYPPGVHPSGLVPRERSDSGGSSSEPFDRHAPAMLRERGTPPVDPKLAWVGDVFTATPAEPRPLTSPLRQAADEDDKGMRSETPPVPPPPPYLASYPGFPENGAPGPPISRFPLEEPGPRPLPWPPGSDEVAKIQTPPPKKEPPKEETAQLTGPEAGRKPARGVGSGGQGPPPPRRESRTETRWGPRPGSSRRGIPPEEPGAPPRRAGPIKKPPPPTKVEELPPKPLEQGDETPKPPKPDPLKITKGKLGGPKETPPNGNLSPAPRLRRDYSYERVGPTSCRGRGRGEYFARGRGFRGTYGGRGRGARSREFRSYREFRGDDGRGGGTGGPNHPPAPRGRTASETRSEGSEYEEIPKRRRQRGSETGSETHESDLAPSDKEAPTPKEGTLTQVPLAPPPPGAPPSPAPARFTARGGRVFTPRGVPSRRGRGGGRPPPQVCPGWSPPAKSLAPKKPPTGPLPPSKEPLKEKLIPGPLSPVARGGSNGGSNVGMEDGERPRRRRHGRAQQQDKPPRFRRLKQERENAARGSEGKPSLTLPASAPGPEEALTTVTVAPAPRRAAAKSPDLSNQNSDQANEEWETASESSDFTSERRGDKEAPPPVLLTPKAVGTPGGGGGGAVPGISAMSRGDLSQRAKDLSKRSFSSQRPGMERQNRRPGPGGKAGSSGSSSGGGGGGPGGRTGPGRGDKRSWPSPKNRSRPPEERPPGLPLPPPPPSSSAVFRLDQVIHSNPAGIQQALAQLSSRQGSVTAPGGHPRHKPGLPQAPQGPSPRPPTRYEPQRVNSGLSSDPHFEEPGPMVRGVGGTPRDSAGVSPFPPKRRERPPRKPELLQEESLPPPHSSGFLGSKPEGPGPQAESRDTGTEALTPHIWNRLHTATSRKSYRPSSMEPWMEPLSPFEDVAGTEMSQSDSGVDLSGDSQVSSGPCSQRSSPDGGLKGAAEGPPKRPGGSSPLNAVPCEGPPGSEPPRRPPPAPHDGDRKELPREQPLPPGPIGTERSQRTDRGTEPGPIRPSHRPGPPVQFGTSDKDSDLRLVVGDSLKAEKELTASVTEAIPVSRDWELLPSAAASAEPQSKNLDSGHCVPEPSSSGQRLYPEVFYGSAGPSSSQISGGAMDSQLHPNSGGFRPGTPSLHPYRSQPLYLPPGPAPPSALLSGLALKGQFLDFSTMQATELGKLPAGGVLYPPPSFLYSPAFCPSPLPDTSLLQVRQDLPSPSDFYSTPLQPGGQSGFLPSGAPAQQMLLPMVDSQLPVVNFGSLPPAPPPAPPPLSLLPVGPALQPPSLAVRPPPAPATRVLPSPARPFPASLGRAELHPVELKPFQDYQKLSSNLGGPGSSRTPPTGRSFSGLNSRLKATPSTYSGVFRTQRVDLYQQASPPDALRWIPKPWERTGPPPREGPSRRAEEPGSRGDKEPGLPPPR

Substance	thermal stability score [1, 5]	thermal stability score ([1]; cell cycle stage: mitosis)	melting temperature ([2]; cell cycle stage: G1/S) [°C]	melting temperature ([2]; cell cycle stage: mitosis) [°C]	solubility in G1/S (log2) [3]	solubility change mitosis (log2) [4]
MSDTLTADVIGRRVEVNGEHATVRFAGVVPPVAGPWLGVEWDNPERGKHDGSHEGTVYFKCRHPTGGSFIRPNKVNFGTDFLTAIKNRYVLEDGPEEDRKEQIVTIGNKPVETIGFDSIMKQQSQLSKLQEVSLRNCAVSCAGEKGGVAEACPNIRKVDLSKNLLSSWDEVIHIADQLRHLEVLNVSENKLKFPSGSVLTGTLSVLKVLVLNQTGITWAEVLRCVAGCPGLEELYLESNNIFISERPTDVLQTVKLLDLSSNQLIDENQLYLIAHLPRLEQLILSDTGISSLHFPDAGIGCKTSMFPSLKYLVVNDNQISQWSFFNELEKLPSLRALSCLRNPLTKEDKEAETARLLIIASIGQLKTLNKCEILPEERRRAELDYRKAFGNEWKQAGGHKDPEKNRLSEEFLTAHPRYQFLCLKYGAPEDWELKTQQPLMLKNQLLTLKIKYPHQLDQKVLEKQLPGSMTIQKVKGLLSRLLKVPVSDLLLSYESPKKPGREIELENDLKSLQFYSVENGDCLLVRW [TBCE]	-0.0546	1.48	47.9	48.4	0.308	-0.101
MAEPVSPLKHFVLAKKAITAIFDQLLEFVTEGSHFVEATYKNPELDRIATEDDLVEMQGYKDKLSIIGEVLSRRHMKVAFFGRTSSGKSSVINAMLWDKVLPSGIGHITNCFLSVEGTDGDKAYLMTEGSDEKKSVKTVNQLAHALHMDKDLKAGCLVRVFWPKAKCALLRDDLVLVDSPGTDVTTELDSWIDKFCLDADVFVLVANSESTLMNTEKHFFHKVNERLSKPNIFILNNRWDASASEPEYMEDVRRQHMERCLHFLVEELKVVNALEAQNRIFFVSAKEVLSARKQKAQGMPESGVALAEGFHARLQEFQNFEQIFEECISQSAVKTKFEQHTIRAKQILATVKNIMDSVNLAAEDKRHYSVEEREDQIDRLDFIRNQMNLLTLDVKKKIKEVTEEVANKVSCAMTDEICRLSVLVDEFCSEFHPNPDVLKIYKSELNKHIEDGMGRNLADRCTDEVNALVLQTQQEIIENLKPLLPAGIQDKLHTLIPCKKFDLSYNLNYHKLCSDFQEDIVFRFSLGWSSLVHRFLGPRNAQRVLLGLSEPIFQLPRSLASTPTAPTTPATPDNASQEELMITLVTGLASVTSRTSMGIIIVGGVIWKTIGWKLLSVSLTMYGALYLYERLSWTTHAKERAFKQQFVNYATEKLRMIVSSTSANCSHQVKQQIATTFARLCQQVDITQKQLEEEIARLPKEIDQLEKIQNNSKLLRNKAVQLENELENFTKQFLPSSNEES [MFN1]	-0.212	-0.832	52	51.3	-0.168	-0.0897
MADLSLLQEDLQEDADGFGVDDYSSESDVIIIPSALDFVSQDEMLTPLGRLDKYAASENIFNRQMVARSLLDTLREVCDDERDCIAVLERISRLADDSEPTVRAELMEQVPHIALFCQENRPSIPYAFSKFLLPIVVRYLADQNNQVRKTSQAALLALLEQELIERFDVETKVCPVLIELTAPDSNDDVKTEAVAIMCKMAPMVGKDITERLILPRFCEMCCDCRMFHVRKVCAANFGDICSVVGQQATEEMLLPRFFQLCSDNVWGVRKACAECFMAVSCATCQEIRRTKLSALFINLISDPSRWVRQAAFQSLGPFISTFANPSSSGQYFKEESKSSEEMSVENKNRTRDQEAPEDVQVRPEDTPSDLSVSNSSVILENTMEDHAAEASGKPLGEISVPLDSSLLCTLSSESHQEAASNENDKKPGNYKSMLRPEVGTTSQDSALLDQELYNSFHFWRTPLPEIDLDIELEQNSGGKPSPEGPEEESEGPVPSSPNITMATRKELEEMIENLEPHIDDPDVKAQVEVLSAALRASSLDAHEETISIEKRSDLQDELDINELPNCKINQEDSVPLISDAVENMDSTLHYIHSDSDLSNNSSFSPDEERRTKVQDVVPQALLDQYLSMTDPSRAQTVDTEIAKHCAYSLPGVALTLGRQNWHCLRETYETLASDMQWKVRRTLAFSIHELAVILGDQLTAADLVPIFNGFLKDLDEVRIGVLKHLHDFLKLLHIDKRREYLYQLQEFLVTDNSRNWRFRAELAEQLILLLELYSPRDVYDYLRPIALNLCADKVSSVRWISYKLVSEMVKKLHAATPPTFGVDLINELVENFGRCPKWSGRQAFVFVCQTVIEDDCLPMDQFAVHLMPHLLTLANDRVPNVRVLLAKTLRQTLLEKDYFLASASCHQEAVEQTIMALQMDRDSDVKYFASIHPASTKISEDAMSTASSTY [PPP4R1]	-0.471	-0.62	51.6	50.8	-0.0857	-0.155
MKGLYFQQSSTDEEITFVFQEKEDLPVTEDNFVKLQVKACALSQINTKLLAEMKMKKDLFPVGREIAGIVLDVGSKVSFFQPDDEVVGILPLDSEDPGLCEVVRVHEHYLVHKPEKVTWTEAAGSIRDGVRAYTALHYLSHLSPGKSVLIMDGASAFGTIAIQLAHHRGAKVISTACSLEDKQCLERFRPPIARVIDVSNGKVHVAESCLEETGGLGVDIVLDAGVRLYSKDDEPAVKLQLLPHKHDIITLLGVGGHWVTTEENLQLDPPDSHCLFLKGATLAFLNDEVWNLSNVQQGKYLCILKDVMEKLSTGVFRPQLDEPIPLYEAKVSMEAVQKNQGRKKQVVQF [CRYZL1]	0.0481	-1.74	57	56.9	0.11	-0.249
NIPBL	2.24	6.45	47.3	49.3	-0.446	0.263
MPAVASVPKELYLSSSLKDLNKKTEVKPEKISTKSYVHSALKIFKTAEECRLDRDEERAYVLYMKYVTVYNLIKKRPDFKQQQDYFHSILGPGNIKKAVEEAERLSESLKLRYEEAEVRKKLEEKDRQEEAQRLQQKRQETGREDGGTLAKGSLENVLDSKDKTQKSNGEKNEKCETKEKGAITAKELYTMMTDKNISLIIMDARRMQDYQDSCILHSLSVPEEAISPGVTASWIEAHLPDDSKDTWKKRGNVEYVVLLDWFSSAKDLQIGTTLRSLKDALFKWESKTVLRNEPLVLEGGYENWLLCYPQYTTNAKVTPPPRRQNEEVSISLDFTYPSLEESIPSKPAAQTPPASIEVDENIELISGQNERMGPLNISTPVEPVAASKSDVSPIIQPVPSIKNVPQIDRTKKPAVKLPEEHRIKSESTNHEQQSPQSGKVIPDRSTKPVVFSPTLMLTDEEKARIHAETALLMEKNKQEKELRERQQEEQKEKLRKEEQEQKAKKKQEAEENEITEKQQKAKEEMEKKESEQAKKEDKETSAKRGKEITGVKRQSKSEHETSDAKKSVEDRGKRCPTPEIQKKSTGDVPHTSVTGDSGSGKPFKIKGQPESGILRTGTFREDTDDTERNKAQREPLTRARSEEMGRIVPGLPSGWAKFLDPITGTFRYYHSPTNTVHMYPPEMAPSSAPPSTPPTHKAKPQIPAERDREPSKLKRSYSSPDITQAIQEEEKRKPTVTPTVNRENKPTCYPKAEISRLSASQIRNLNPVFGGSGPALTGLRNLGNTCYMNSILQCLCNAPHLADYFNRNCYQDDINRSNLLGHKGEVAEEFGIIMKALWTGQYRYISPKDFKITIGKINDQFAGYSQQDSQELLLFLMDGLHEDLNKADNRKRYKEENNDHLDDFKAAEHAWQKHKQLNESIIVALFQGQFKSTVQCLTCHKKSRTFEAFMYLSLPLASTSKCTLQDCLRLFSKEEKLTDNNRFYCSHCRARRDSLKKIEIWKLPPVLLVHLKRFSYDGRWKQKLQTSVDFPLENLDLSQYVIGPKNNLKKYNLFSVSNHYGGLDGGHYTAYCKNAARQRWFKFDDHEVSDISVSSVKSSAAYILFYTSLGPRVTDVAT [USP8]	-0.07	-0.00341	49.2	49.3	-0.121	-0.0263
MSFSRALLWARLPAGRQAGHRAAICSALRPHFGPFPGVLGQVSVLATASSSASGGSKIPNTSLFVPLTVKPQGPSADGDVGAELTRPLDKNEVKKVLDKFYKRKEIQKLGADYGLDARLFHQAFISFRNYIMQSHSLDVDIHIVLNDICFGAAHADDLFPFFLRHAKQIFPVLDCKDDLRKISDLRIPPNWYPDARAMQRKIIFHSGPTNSGKTYHAIQKYFSAKSGVYCGPLKLLAHEIFEKSNAAGVPCDLVTGEERVTVQPNGKQASHVSCTVEMCSVTTPYEVAVIDEIQMIRDPARGWAWTRALLGLCAEEVHLCGEPAAIDLVMELMYTTGEEVEVRDYKRLTPISVLDHALESLDNLRPGDCIVCFSKNDIYSVSRQIEIRGLESAVIYGSLPPGTKLAQAKKFNDPNDPCKILVATDAIGMGLNLSIRRIIFYSLIKPSINEKGERELEPITTSQALQIAGRAGRFSSRFKEGEVTTMNHEDLSLLKEILKRPVDPIRAAGLHPTAEQIEMFAYHLPDATLSNLIDIFVDFSQVDGQYFVCNMDDFKFSAELIQHIPLSLRVRYVFCTAPINKKQPFVCSSLLQFARQYSRNEPLTFAWLRRYIKWPLLPPKNIKDLMDLEAVHDVLDLYLWLSYRFMDMFPDASLIRDLQKELDGIIQDGVHNITKLIKMSETHKLLNLEGFPSGSQSRLSGTLKSQARRTRGTKALGSKATEPPSPDAGELSLASRLVQQGLLTPDMLKQLEKEWMTQQTEHNKEKTESGTHPKGTRRKKKEPDSD [SUPV3L1]	0.374	0.138	51.4	51.5	-0.0284	-0.0848
MGRCCFYTAGTLSLLLLVTSVTLLVARVFQKAVDQSIEKKIVLRNGTEAFDSWEKPPLPVYTQFYFFNVTNPEEILRGETPRVEEVGPYTYRELRNKANIQFGDNGTTISAVSNKAYVFERDQSVGDPKIDLIRTLNIPVLTVIEWSQVHFLREIIEAMLKAYQQKLFVTHTVDELLWGYKDEILSLIHVFRPDISPYFGLFYEKNGTNDGDYVFLTGEDSYLNFTKIVEWNGKTSLDWWITDKCNMINGTDGDSFHPLITKDEVLYVFPSDFCRSVYITFSDYESVQGLPAFRYKVPAEILANTSDNAGFCIPEGNCLGSGVLNVSICKNGAPIIMSFPHFYQADERFVSAIEGMHPNQEDHETFVDINPLTGIILKAAKRFQINIYVKKLDDFVETGDIRTMVFPVMYLNESVHIDKETASRLKSMINTTLIITNIPYIIMALGVFFGLVFTWLACKGQGSMDEGTADERAPLIRT [SCARB2]	-2.37	-3.51	58.5	60.2	0.3	-0.119
MQSTSNHLWLLSDILGQGATANVFRGRHKKTGDLFAIKVFNNISFLRPVDVQMREFEVLKKLNHKNIVKLFAIEEETTTRHKVLIMEFCPCGSLYTVLEEPSNAYGLPESEFLIVLRDVVGGMNHLRENGIVHRDIKPGNIMRVIGEDGQSVYKLTDFGAARELEDDEQFVSLYGTEEYLHPDMYERAVLRKDHQKKYGATVDLWSIGVTFYHAATGSLPFRPFEGPRRNKEVMYKIITGKPSGAISGVQKAENGPIDWSGDMPVSCSLSRGLQVLLTPVLANILEADQEKCWGFDQFFAETSDILHRMVIHVFSLQQMTAHKIYIHSYNTATIFHELVYKQTKIISSNQELIYEGRRLVLEPGRLAQHFPKTTEENPIFVVSREPLNTIGLIYEKISLPKVHPRYDLDGDASMAKAITGVVCYACRIASTLLLYQELMRKGIRWLIELIKDDYNETVHKKTEVVITLDFCIRNIEKTVKVYEKLMKINLEAAELGEISDIHTKLLRLSSSQGTIETSLQDIDSRLSPGGSLADAWAHQEGTHPKDRNVEKLQVLLNCMTEIYYQFKKDKAERRLAYNEEQIHKFDKQKLYYHATKAMTHFTDECVKKYEAFLNKSEEWIRKMLHLRKQLLSLTNQCFDIEEEVSKYQEYTNELQETLPQKMFTASSGIKHTMTPIYPSSNTLVEMTLGMKKLKEEMEGVVKELAENNHILERFGSLTMDGGLRNVDCL [TBK1]	0.969	1.43	48.6	48.6	-0.00961	-0.105
PRRC2A	0.422	0.00992	53.7	55.1	-0.105	0.0463
